Measurements: patent US20110034372A1
Blank lines part the entries; values can stand above or below the substance they belong to.

Legend:
[1] = molecular target: cell surface GDF-8 binding proteins on L6 myoblasts; experiment: I-125 labeled GDF-8 receptor-ligand binding assay on myoblast cells
[2] = molecular target: myostatin mature C-terminal dimer (purified from CHO cell conditioned medium) (UniProt O08689); experiment: inhibition of labeled myostatin binding to Act RIIB-transfected COS-7 cells
[3] = molecular target: myostatin mature C-terminal dimer (purified from CHO cell conditioned medium) (UniProt O08689); experiment: inhibition of labeled myostatin binding to Act RIIB-transfected COS-7 cells; reference: follistatin Ki of approximately 470 pM

Sequence of myostatin mature C-terminal dimer (purified from CHO cell conditioned medium) (O08689 268-376 limits assumed): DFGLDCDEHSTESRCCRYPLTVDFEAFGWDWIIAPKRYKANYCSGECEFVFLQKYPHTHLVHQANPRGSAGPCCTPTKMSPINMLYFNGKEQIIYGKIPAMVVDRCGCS
Sequence of Recombinant human GDF-8 (rhGDF-8) homodimer (O14793 267-374): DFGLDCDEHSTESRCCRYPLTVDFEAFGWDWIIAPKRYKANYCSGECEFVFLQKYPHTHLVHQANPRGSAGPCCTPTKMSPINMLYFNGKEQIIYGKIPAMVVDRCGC

Kd [1]: 0.37 nM
Substance: Recombinant human GDF-8 (rhGDF-8) homodimer (from UniProt O14793 267-374) (ligand)

Ki [2]: 0.47 nM
Substance: follistatin

Ki, fold relative to the Ki of follistatin [3]: 50 fold
Substance: myostatin prodomain peptide (purified from CHO cell conditioned medium) (from UniProt O08689 25-267)
